Numbering of substitutions follows the chain as printed.
B1: Variant hu504.32, IgG (antibody, V domains shown)
VH: EVQLVESGGGLVQPGGSLRLSCAASGFFITNNYWGWVRQAPGKGLEWVGYISYSGSTSYNPSLKSRFTISRDTSKNTFYLQMNSLRAEDTAVYYCAMTGSSGYFDFWGQGTLVTVSS
VL: DIQMTQSPSSLSASVGDRVTITCRASESVDDLLHWYQQKPGKAPKLLIKYASQSISGVPSRFSGSGSGTDFTLTISSLQPEDFATYYCQQGNSLPNTFGQGTKVEIKR
notes: methionine at heavy chain position 94; also called hu504.32M; 504.32M
B2: Variant hu504.5, IgG (antibody, name in Kabat numbering, V domains shown)
VH: B1 VH
VL: B1 VL with D31S
B3: Variant hu504.16, IgG (antibody, name in Kabat numbering, V domains shown)
VH: B1 VH
VL: B1 VL with D31T
B4: Rat Fib504 (antibody FIB504.64 produced by hybridoma ATCC HB-293) (antibody, V domains shown)
VH: EVQLQESGPGLVKPSQSLSLTCSVTGFFITNNYWGWIRKFPGNKMEWMGYISYSGSTSYNPSLKSRISITRDTSKNQFFLQLNSVTTEDTATYYCAMTGSSGYFDFWGPGTMVTVSS
VL: DVVMTQSPATLSVTPGERISLSCRASESVDTYLHWYQQKPNESPRLLIKYASQSISGIPSRFSGSGSGTDFTLSINGVELEDLSIYYCQQGNSLPNTFGAGTKLELKR
notes: Whole rat antibody in the cell adhesion assays; also called rat anti-mouse beta7 antibody

Columns and labels:
[1] = molecular target: T1, alpha4beta7 on 38C13 alpha4+ murine lymphoma cells transfected with integrin beta7 (38C13beta7 cells) (murine, UniProt Q00651 41-1039; P26011 20-806); test: cell adhesion inhibition, 38C13beta7 cells on coated muMAdCAM-1-Ig, experiment 2 of 2
T1 construct: whole, on cells; also called 38C13-beta7 expressing cells; murine beta7-containing receptor
Method: (§1) RPMI8866/MAdCAM-1-Ig Cell Adhesion: RPMI8866 cells express alpha4beta7 on their surface (Roswell Park Memorial Institute, Buffalo, N.Y.). Humanized Fib504 variants (hu504 variants) were contacted with a mixture of RMPI8866 cells and MAdCAM fused to IgG coated on a solid support. […] After blocking the plates with 200 ul/well of 5 mg/ml BSA for one hour at room temperature, 50 μl of humanized Fib504 variants in assay media (RPMI 1640 media, Hyclone®, Logan Utah, USA, supplemented with 5 mg/mL BSA) were added to each well and 150,000 BCECF-labeled cells (BCECF, Molecular Probes, Eugene, Oreg.) in 50 μl of assay media were added to each well and incubated for 15 minutes at 37° C. The wells were washed two times with 150 μl of assay media to remove unbound cells. The bound cells were solubilized with 100 μl of 0.1% SDS in 50 mM Tris/HCl pH7.5. The amount of fluorescence released from lysed cells was measured by SPECTRAmax GEMINI™ (Molecular Devices, Sunnyvale, Calif.) at 485 nm excitation 530 nm emission wavelengths. The fluorescence values were analyzed as a function of the concentrations of the humanized Fib504 variants added in each assay, using a four-parameter nonlinear least squares fit, to obtain the IC₅₀ values of each humanized Fib504 variant in the assay. IC₅₀ and IC₉₀ values were estimated from the four-parameter fit. FIG. 14 is an exemplary plot of the results. The IC₉₀ and IC₅₀ values for each of the variants tested are shown below in Table 4.
(§2) 38C13beta7/muMAdCAM-1-Ig Cell Adhesion Assay: The 38C13beta7/muMAdCAM-1-Ig assay was similar format to the RPMI8866/MAdCAM-1-Ig except that muMAdCAM-1-Ig (Genentech, Inc.) was used at 2 μg/ml to coat plates. 38C13 alpha4+ murine lymphoma cells (Crowe, D. T. et al., J. Biol. Chem. 269:14411-14418 (1994)) were transfected with DNA encoding integrin beta7 such that alpha4beta7 was expressed on the cell surface. The ability of the antibodies variants to disrupt interaction between the cell membrane associated alpha4beta7 and MAdCAM was performed as above.

[2] = molecular target: T2, alphaEbeta7 on alphaEbeta7-transfected 293 cells (human, UniProt P38570 19-1179; P26010 20-798); test: cell adhesion inhibition, alphaEbeta7 293 cells on coated huE-Cadherin, experiment 3 of 3
T2 construct: whole, on cells; also called alphaEbeta7 293 cells
Method: (§3) After blocking the plates with 200 ul/well of 5 mg/ml BSA for one hour at room temperature, 50 μl of humanized Fib504 variants in assay media (RPMI 1640 media, Hyclone®, Logan Utah, USA, supplemented with 5 mg/mL BSA) were added to each well and 150,000 BCECF-labeled cells (BCECF, Molecular Probes, Eugene, Oreg.) in 50 μl of assay media were added to each well and incubated for 15 minutes at 37° C. The wells were washed two times with 150 μl of assay media to remove unbound cells. The bound cells were solubilized with 100 μl of 0.1% SDS in 50 mM Tris/HCl pH7.5. The amount of fluorescence released from lysed cells was measured by SPECTRAmax GEMINI™ (Molecular Devices, Sunnyvale, Calif.) at 485 nm excitation 530 nm emission wavelengths. The fluorescence values were analyzed as a function of the concentrations of the humanized Fib504 variants added in each assay, using a four-parameter nonlinear least squares fit, to obtain the IC₅₀ values of each humanized Fib504 variant in the assay. IC₅₀ and IC₉₀ values were estimated from the four-parameter fit. FIG. 14 is an exemplary plot of the results. The IC₉₀ and IC₅₀ values for each of the variants tested are shown below in Table 4.
(§4) The assay format is similar to the RPMI8866/MAdCAM-1-Ig assay except that the huE-Cadherin (648-EC, R&D Systems, Minneapolis, Minn.) was used at 2 μg/ml to coat the plates. Plates were then blocked with 5 mg/ml BSA as mentioned above and 50 μl of FIB504 variants in assay media (F-12:DMEM (50:50) supplemented with 5 mg/ml BSA) were add to each well and 110,000 BCECF labeled cells in 50 ul of assay media were added to each well and incubated for 15 minutes at 37° C. The wells were washed two times with 150 μl of assay media and the amount of fluorescence released by lysed cells was measured and analyzed as described above.

[3] = molecular target: T1, alpha4beta7 on 38C13 alpha4+ murine …; test: cell adhesion inhibition, 38C13beta7 cells on coated muVCAM-1-Ig, experiment 1 of 2
Method: as §1
(§5) 38C13beta7/muVCAM-1-Ig Cell Adhesion Assay: The 38C13beta7/muVCAM-1-Ig assay was performed according to the murine MAdCAM-1-Ig/RPMI8866 cell binding assay above, except that muVCAM-1-Ig (Genentech, Inc.) was used at 2 μg/ml to coat plates. (IC₅₀ and IC₉₀ values for 2 experiments are shown).

[4] = molecular target: T2, alphaEbeta7 on alphaEbeta7-transfected …; test: cell adhesion inhibition, alphaEbeta7 293 cells on coated huE-Cadherin, experiment 2 of 3
Method: as §3, §4

[5] = molecular target: T1, alpha4beta7 on 38C13 alpha4+ murine …; test: cell adhesion inhibition, 38C13beta7 cells on coated muMAdCAM-1-Ig, experiment 1 of 2
Method: as §1, §2

[6] = molecular target: T2, alphaEbeta7 on alphaEbeta7-transfected …; test: cell adhesion inhibition, alphaEbeta7 293 cells on coated huE-Cadherin, experiment 1 of 3
Method: as §3, §4

[7] = molecular target: T1, alpha4beta7 on 38C13 alpha4+ murine …; test: cell adhesion inhibition, 38C13beta7 cells on coated muVCAM-1-Ig, experiment 2 of 2
Method: as §1, §5

[8] = molecular target: T3, human alpha4beta7 receptor on RPMI8866 cells (human, UniProt P13612 34-1032; P26010 20-798); test: cell adhesion inhibition, RPMI8866 cells on coated MAdCAM-1-Ig, Exp 1
T3 construct: whole, on cells; also called alpha4beta7 on RPMI8866
Method: as §1

[9] = molecular target: T3, human alpha4beta7 receptor on RPMI8866 …; test: cell adhesion inhibition, RPMI8866 cells on coated 7dVCAM-1, Exp 1
Method: as §1
(§6) RPMI8866/7dVCAM-1 Cell Adhesion: The RPMI8866/7dVCAM-1 assay is similar format to the RPMI8866/MAdCAM-1-Ig except that 7dVCAM-1 (ADP5, R&D Systems, Minneapolis, Minn.) was used at 2 ug/ml to coat plates. The results were analyzed as described above for the MAdCAM binding experiments. The IC₅₀ values for each of the variants tested are shown below in Table 5.

[10] = molecular target: T3, human alpha4beta7 receptor on RPMI8866 …; test: cell adhesion inhibition, RPMI8866 cells on coated MAdCAM-1-Ig, Exp 2
Method: as §1

[11] = molecular target: T3, human alpha4beta7 receptor on RPMI8866 …; test: cell adhesion inhibition, RPMI8866 cells on coated 7dVCAM-1, Exp 2
Method: as §1, §6

T2 sequence (P38570 19-1179, chain 1 of 2): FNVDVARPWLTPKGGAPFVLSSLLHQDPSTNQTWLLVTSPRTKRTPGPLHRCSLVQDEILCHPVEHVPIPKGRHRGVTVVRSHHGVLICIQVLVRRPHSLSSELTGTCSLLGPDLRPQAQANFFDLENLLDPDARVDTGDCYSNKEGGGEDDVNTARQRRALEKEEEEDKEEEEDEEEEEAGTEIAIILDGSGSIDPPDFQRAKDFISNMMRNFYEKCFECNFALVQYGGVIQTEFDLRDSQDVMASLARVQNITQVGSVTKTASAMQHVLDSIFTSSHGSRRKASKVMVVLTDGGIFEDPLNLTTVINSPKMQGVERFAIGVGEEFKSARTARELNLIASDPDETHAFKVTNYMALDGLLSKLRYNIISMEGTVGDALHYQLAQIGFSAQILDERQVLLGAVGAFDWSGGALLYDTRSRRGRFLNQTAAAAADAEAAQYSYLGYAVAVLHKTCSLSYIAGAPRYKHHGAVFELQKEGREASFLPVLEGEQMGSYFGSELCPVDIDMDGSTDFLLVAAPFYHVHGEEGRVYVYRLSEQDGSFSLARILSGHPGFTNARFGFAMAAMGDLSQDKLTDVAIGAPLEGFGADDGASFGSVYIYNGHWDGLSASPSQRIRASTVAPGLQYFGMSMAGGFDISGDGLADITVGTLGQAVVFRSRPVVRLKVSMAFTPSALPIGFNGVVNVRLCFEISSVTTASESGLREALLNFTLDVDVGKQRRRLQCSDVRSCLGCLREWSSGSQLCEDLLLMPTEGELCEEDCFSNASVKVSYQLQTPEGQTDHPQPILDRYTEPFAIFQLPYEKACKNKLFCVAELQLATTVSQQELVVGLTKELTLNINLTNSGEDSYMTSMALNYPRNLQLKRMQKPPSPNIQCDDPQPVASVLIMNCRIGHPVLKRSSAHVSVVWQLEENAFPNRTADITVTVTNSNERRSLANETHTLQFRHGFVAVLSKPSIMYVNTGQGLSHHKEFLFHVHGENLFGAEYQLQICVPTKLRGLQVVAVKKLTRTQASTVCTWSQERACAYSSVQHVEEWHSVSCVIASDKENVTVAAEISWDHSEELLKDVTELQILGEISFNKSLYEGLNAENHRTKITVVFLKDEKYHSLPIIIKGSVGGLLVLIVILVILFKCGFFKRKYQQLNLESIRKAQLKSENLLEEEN
T2 sequence (P26010 20-798, chain 2 of 2): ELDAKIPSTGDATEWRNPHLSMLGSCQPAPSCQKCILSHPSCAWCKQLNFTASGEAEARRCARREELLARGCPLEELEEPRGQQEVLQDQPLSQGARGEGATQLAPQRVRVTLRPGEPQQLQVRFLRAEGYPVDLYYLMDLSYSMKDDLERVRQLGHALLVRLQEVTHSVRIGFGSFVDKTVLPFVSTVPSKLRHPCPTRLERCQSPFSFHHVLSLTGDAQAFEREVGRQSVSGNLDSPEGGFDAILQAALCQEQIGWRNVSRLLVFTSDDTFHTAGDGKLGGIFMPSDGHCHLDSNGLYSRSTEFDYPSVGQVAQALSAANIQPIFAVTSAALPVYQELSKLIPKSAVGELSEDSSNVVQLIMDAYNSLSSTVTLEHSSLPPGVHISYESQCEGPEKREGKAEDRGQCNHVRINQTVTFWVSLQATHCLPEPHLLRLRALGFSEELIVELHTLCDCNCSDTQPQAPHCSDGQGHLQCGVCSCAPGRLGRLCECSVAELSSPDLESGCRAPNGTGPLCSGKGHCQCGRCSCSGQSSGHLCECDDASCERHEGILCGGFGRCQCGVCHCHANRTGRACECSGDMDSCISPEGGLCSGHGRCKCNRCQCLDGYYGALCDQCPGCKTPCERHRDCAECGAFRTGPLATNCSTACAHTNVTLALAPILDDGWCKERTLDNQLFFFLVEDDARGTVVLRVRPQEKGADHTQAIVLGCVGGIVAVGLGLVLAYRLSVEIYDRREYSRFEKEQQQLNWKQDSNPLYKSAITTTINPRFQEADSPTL
T3 sequence (P13612 34-1032, chain 1 of 2): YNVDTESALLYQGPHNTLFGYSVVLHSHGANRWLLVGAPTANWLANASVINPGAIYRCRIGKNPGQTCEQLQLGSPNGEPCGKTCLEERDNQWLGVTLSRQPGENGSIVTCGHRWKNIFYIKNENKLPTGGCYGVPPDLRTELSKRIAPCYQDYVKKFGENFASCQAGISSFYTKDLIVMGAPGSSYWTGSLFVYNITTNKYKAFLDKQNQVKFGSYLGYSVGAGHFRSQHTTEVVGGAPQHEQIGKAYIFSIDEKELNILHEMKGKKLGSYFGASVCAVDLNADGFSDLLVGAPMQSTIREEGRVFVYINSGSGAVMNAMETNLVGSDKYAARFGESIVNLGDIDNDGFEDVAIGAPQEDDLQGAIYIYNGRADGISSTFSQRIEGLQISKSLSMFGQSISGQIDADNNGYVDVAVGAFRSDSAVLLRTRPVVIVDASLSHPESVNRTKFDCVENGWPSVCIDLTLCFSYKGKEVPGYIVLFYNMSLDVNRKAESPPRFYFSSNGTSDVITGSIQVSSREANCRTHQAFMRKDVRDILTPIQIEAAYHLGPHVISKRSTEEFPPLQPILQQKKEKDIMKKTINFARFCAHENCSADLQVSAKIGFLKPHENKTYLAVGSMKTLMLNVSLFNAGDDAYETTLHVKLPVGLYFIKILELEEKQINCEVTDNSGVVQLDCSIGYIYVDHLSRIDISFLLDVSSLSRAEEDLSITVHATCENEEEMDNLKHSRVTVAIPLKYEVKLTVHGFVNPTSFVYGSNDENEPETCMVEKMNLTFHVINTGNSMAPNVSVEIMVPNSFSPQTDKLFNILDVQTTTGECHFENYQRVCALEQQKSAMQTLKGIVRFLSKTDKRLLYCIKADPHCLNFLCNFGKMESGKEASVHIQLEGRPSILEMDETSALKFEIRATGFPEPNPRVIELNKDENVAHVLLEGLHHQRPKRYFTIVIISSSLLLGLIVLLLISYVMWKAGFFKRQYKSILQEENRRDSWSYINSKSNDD
T3 sequence (P26010 20-798, chain 2 of 2): as the sequence (P26010 20-798, chain 2 of 2) above
T1 sequence (Q00651 41-1039, chain 1 of 2): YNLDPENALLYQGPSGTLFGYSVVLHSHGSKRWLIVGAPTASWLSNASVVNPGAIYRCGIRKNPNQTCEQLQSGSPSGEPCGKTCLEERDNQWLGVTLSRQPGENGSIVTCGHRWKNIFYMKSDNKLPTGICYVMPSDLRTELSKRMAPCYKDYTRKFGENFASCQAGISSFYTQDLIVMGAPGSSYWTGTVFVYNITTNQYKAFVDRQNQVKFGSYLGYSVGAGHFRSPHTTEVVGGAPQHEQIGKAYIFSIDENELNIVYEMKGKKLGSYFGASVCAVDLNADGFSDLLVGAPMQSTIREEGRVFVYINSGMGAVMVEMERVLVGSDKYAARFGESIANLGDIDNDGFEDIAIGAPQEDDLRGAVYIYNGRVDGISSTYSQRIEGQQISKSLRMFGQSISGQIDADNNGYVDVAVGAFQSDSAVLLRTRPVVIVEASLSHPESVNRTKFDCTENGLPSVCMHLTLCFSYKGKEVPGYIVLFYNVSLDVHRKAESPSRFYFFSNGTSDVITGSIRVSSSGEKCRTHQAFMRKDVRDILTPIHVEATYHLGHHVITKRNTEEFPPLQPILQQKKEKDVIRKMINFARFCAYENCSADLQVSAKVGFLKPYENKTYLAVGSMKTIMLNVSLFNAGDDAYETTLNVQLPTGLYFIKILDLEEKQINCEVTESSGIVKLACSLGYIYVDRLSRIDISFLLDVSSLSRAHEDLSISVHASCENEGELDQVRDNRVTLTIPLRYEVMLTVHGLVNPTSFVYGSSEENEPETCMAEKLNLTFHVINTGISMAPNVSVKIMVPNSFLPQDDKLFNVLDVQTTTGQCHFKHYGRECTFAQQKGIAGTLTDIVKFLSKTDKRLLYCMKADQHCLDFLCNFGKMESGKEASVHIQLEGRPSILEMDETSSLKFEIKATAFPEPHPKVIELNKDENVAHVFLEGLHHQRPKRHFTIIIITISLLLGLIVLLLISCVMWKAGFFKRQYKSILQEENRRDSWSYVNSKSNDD
T1 sequence (P26011 20-806, chain 2 of 2): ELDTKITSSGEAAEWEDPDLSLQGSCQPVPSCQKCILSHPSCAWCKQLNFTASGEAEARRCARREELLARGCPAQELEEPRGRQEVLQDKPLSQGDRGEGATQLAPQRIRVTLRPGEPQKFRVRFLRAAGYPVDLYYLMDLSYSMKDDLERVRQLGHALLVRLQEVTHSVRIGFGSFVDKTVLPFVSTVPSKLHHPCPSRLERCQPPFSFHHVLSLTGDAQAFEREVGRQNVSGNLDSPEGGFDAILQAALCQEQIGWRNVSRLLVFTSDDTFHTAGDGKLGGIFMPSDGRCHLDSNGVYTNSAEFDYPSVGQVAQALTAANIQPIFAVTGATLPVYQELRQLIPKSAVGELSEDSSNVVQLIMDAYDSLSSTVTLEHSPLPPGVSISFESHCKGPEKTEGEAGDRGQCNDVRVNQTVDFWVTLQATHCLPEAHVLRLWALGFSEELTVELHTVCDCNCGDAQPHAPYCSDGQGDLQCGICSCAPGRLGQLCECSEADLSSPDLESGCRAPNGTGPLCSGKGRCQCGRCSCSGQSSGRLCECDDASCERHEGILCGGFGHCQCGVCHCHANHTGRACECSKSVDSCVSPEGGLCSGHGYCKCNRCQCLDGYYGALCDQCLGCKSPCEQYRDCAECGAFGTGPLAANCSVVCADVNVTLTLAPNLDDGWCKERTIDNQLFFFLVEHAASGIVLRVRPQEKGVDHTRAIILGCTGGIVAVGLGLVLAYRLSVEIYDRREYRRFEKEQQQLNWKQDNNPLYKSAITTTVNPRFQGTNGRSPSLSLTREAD

| Binder | IC50 [1] [nM] | IC90 [1] [nM] | IC50 [2] [nM] | IC90 [2] [nM] | IC50 [3] [nM] | IC90 [3] [nM] | IC50 [4] [nM] | IC90 [4] [nM] | IC50 [5] [nM] | IC90 [5] [nM] | IC50 [6] [nM] | IC90 [6] [nM] | IC50 [7] [nM] | IC90 [7] [nM] | IC50 [8] [nM] | IC90 [8] [nM] | IC50 [9] [nM] | IC90 [9] [nM] | IC50 [10] [nM] | IC90 [10] [nM] | other results |
| --- | --- | --- | --- | --- | --- | --- | --- | --- | --- | --- | --- | --- | --- | --- | --- | --- | --- | --- | --- | --- | --- |
| B1 | 0.458 | 1.51 | 3.47 | 11.7 | 0.562 | 2 | 6.99 | 24.5 | 0.718 | 4.08 | 1.81 | 8.8 | 0.33 | 1.84 |  |  |  |  |  |  |  |
| B2 | 0.466 | 2.61 | 4.77 | 10.2 | 0.763 | 3.07 | 10.2 | 28.7 | 0.859 | 2.32 | 2.13 | 7.99 | 0.407 | 2.3 | 0.067 | 0.361 | 0.088 | 0.396 | 0.248 | 0.88 | IC50 [11]: 0.27 nM; IC90 [11]: 0.726 nM |
| B3 | 0.61 | 4.08 | 4.58 | 13.5 | 0.835 | 2.86 | 10.1 | 33.7 | 0.998 | 3.72 | 1.96 | 7.03 | 0.584 | 1.84 | 0.0768 | 0.244 | 0.098 | 0.261 | 0.206 | 0.551 | IC50 [11]: 0.223 nM; IC90 [11]: 0.774 nM |
| B4 | 0.306 | 1.51 | 4.19 | 9.95 | 0.845 | 2.9 | 7.89 | 24.5 | 0.682 | 2.87 | 2.05 | 8.8 | 0.447 | 2.3 | 0.098 | 0.483 | 0.107 | 0.396 | 0.197 | 0.703 | IC50 [11]: 0.193 nM; IC90 [11]: 0.58 nM |

— patent US20090226437A1 (Genentech, published 2009)
